Test results published in the supplement of paper PMC9112550, “Optimization of the antimicrobial peptide Bac7 by deep mutational scanning” (BMC Biology, 2022).

Tested on: Escherichia coli TOP10
Assay: shrunken log2 fold change of peptide-encoding DNA abundance (4.5 h post-induction vs induction); higher = less antimicrobial activity (less host growth inhibition)
Conditions: time post-induction: 4.5 h; library: site-saturation at positions 5, 18, 19, 20
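Note: peptides expressed intracellularly from a pBAD plasmid library in pooled LB shake-flask culture, induced with 0.3% L-arabinose, DNA abundance read by NGS, three biological replicates, DESeq2 with apeglm shrinkage.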

RRIRVRPPRLPRPRPRPVKSPRP and RRIRVRPPRLPRPRPRPPGNPRP are within 0.2 log units of each other in “shrunken log2 fold change” value: -0.0272 for the first, 0.17 for the second.

Compared with RRIRLRPPRLPRPRPRPGEHPRP, RRIRSRPPRLPRPRPRPYRIPRP is higher in “shrunken log2 fold change” value: -0.145 for the first, 0.123 for the second.

RRIRPRPPRLPRPRPRPCTLPRP and RRIRDRPPRLPRPRPRPHWFPRP are within 0.2 log units of each other in “shrunken log2 fold change” value: -0.029 for the first, 0.0318 for the second.

Going from RRIRIRPPRLPRPRPRPDIYPRP to RRIRPRPPRLPRPRPRPWHSPRP, the “shrunken log2 fold change” value rises from -0.357 to -0.134.

First: RRIRVRPPRLPRPRPRPMVSPRP
Second: RRIRFRPPRLPRPRPRPKRDPRP
The “shrunken log2 fold change” value of the first is lower: -0.188 for the first, 0.362 for the second.

Going from RRIRNRPPRLPRPRPRPQKQPRP to RRIRGRPPRLPRPRPRPKSLPRP, the “shrunken log2 fold change” value rises from 0.00917 to 0.413.

Going from RRIRKRPPRLPRPRPRPQNDPRP to RRIRYRPPRLPRPRPRPRYSPRP, the “shrunken log2 fold change” value falls from -0.0578 to -1.43.

First: RRIRRRPPRLPRPRPRPEREPRP
Second: RRIRIRPPRLPRPRPRPAHVPRP
The “shrunken log2 fold change” value of the first is higher: 0.297 for the first, -0.0796 for the second.

Compared with RRIRMRPPRLPRPRPRPGLNPRP, RRIRERPPRLPRPRPRPKCQPRP is lower in “shrunken log2 fold change” value: 0.223 for the first, -0.178 for the second.

RRIRPRPPRLPRPRPRPGEMPRP and RRIRRRPPRLPRPRPRPGTTPRP are within 0.2 log units of each other in “shrunken log2 fold change” value: 0.294 for the first, 0.462 for the second.

RRIRTRPPRLPRPRPRPWHRPRP and RRIRYRPPRLPRPRPRPPQTPRP are within 0.2 log units of each other in “shrunken log2 fold change” value: -0.126 for the first, -0.314 for the second.

RRIRHRPPRLPRPRPRPQRGPRP and RRIRNRPPRLPRPRPRPVATPRP are within 0.2 log units of each other in “shrunken log2 fold change” value: -0.0034 for the first, -0.0503 for the second.

Compared with RRIRHRPPRLPRPRPRPRGRPRP, RRIRARPPRLPRPRPRPCRMPRP is lower in “shrunken log2 fold change” value: -0.0974 for the first, -0.353 for the second.

Compared with RRIRVRPPRLPRPRPRPLHAPRP, RRIRPRPPRLPRPRPRPQVRPRP is lower in “shrunken log2 fold change” value: 0.473 for the first, -0.13 for the second.

Going from RRIRQRPPRLPRPRPRPMIRPRP to RRIRCRPPRLPRPRPRPPQGPRP, the “shrunken log2 fold change” value rises from -0.0156 to 0.29.

First: RRIRARPPRLPRPRPRPLRIPRP
Second: RRIRIRPPRLPRPRPRPLVIPRP
The “shrunken log2 fold change” value of the first is higher: 2.9 for the first, -1.46 for the second.

First: RRIRIRPPRLPRPRPRPANSPRP
Second: RRIRIRPPRLPRPRPRPRPGPRP
The “shrunken log2 fold change” value of the first is lower: -0.204 for the first, 0.618 for the second.

Going from RRIRSRPPRLPRPRPRPHRCPRP to RRIRMRPPRLPRPRPRPPPLPRP, the “shrunken log2 fold change” value rises from -0.209 to 1.58.

Going from RRIRRRPPRLPRPRPRPDHMPRP to RRIRLRPPRLPRPRPRPCLMPRP, the “shrunken log2 fold change” value falls from -0.0178 to -0.266.

RRIRQRPPRLPRPRPRPDNDPRP and RRIRKRPPRLPRPRPRPFTDPRP are within 0.2 log units of each other in “shrunken log2 fold change” value: -0.0011 for the first, -0.091 for the second.

Compared with RRIRYRPPRLPRPRPRPYYIPRP, RRIRARPPRLPRPRPRPRKFPRP is higher in “shrunken log2 fold change” value: -1.83 for the first, 0.421 for the second.

Going from RRIRVRPPRLPRPRPRPLVTPRP to RRIRGRPPRLPRPRPRPDYGPRP, the “shrunken log2 fold change” value rises from -0.348 to 0.0184.

Compared with RRIRNRPPRLPRPRPRPMRGPRP, RRIRCRPPRLPRPRPRPFNVPRP is lower in “shrunken log2 fold change” value: 0.211 for the first, -0.146 for the second.

RRIRKRPPRLPRPRPRPTCCPRP and RRIRNRPPRLPRPRPRPKQLPRP are within 0.2 log units of each other in “shrunken log2 fold change” value: 0.0692 for the first, 0.252 for the second.

RRIRTRPPRLPRPRPRPGLTPRP and RRIRDRPPRLPRPRPRPYQQPRP are within 0.2 log units of each other in “shrunken log2 fold change” value: -0.0361 for the first, -0.184 for the second.

RRIRCRPPRLPRPRPRPPMSPRP and RRIRYRPPRLPRPRPRPFPWPRP are within 0.2 log units of each other in “shrunken log2 fold change” value: -0.178 for the first, -0.18 for the second.

First: RRIRPRPPRLPRPRPRPQEFPRP
Second: RRIRFRPPRLPRPRPRPNTQPRP
The “shrunken log2 fold change” value of the first is higher: 0.0774 for the first, -0.309 for the second.

Going from RRIRWRPPRLPRPRPRPPVCPRP to RRIRYRPPRLPRPRPRPEMGPRP, the “shrunken log2 fold change” value falls from 0.15 to -0.0771.

RRIRMRPPRLPRPRPRPASLPRP and RRIRGRPPRLPRPRPRPIKQPRP are within 0.2 log units of each other in “shrunken log2 fold change” value: -0.0145 for the first, -0.0183 for the second.

RRIRHRPPRLPRPRPRPRARPRP and RRIRCRPPRLPRPRPRPEEPPRP are within 0.2 log units of each other in “shrunken log2 fold change” value: 0.814 for the first, 0.847 for the second.

RRIRTRPPRLPRPRPRPWGSPRP and RRIRQRPPRLPRPRPRPIMVPRP are within 0.2 log units of each other in “shrunken log2 fold change” value: 0.0639 for the first, -0.0523 for the second.

Compared with RRIRERPPRLPRPRPRPVVIPRP, RRIRGRPPRLPRPRPRPSENPRP is higher in “shrunken log2 fold change” value: -0.251 for the first, 0.359 for the second.

Compared with RRIRKRPPRLPRPRPRPPTDPRP, RRIRCRPPRLPRPRPRPIPEPRP is lower in “shrunken log2 fold change” value: 0.544 for the first, 0.00841 for the second.

RRIRQRPPRLPRPRPRPDHNPRP and RRIRMRPPRLPRPRPRPEYYPRP are within 0.2 log units of each other in “shrunken log2 fold change” value: -0.328 for the first, -0.218 for the second.

First: RRIRFRPPRLPRPRPRPEGFPRP
Second: RRIRFRPPRLPRPRPRPSIKPRP
The “shrunken log2 fold change” value of the first is higher: 0.518 for the first, -0.42 for the second.

Going from RRIRWRPPRLPRPRPRPAAMPRP to RRIRNRPPRLPRPRPRPCAIPRP, the “shrunken log2 fold change” value falls from 0.604 to -0.0115.

First: RRIRHRPPRLPRPRPRPICFPRP
Second: RRIRVRPPRLPRPRPRPNMSPRP
The “shrunken log2 fold change” value of the first is higher: -0.114 for the first, -0.537 for the second.

RRIRIRPPRLPRPRPRPCKQPRP and RRIRARPPRLPRPRPRPFLAPRP are within 0.2 log units of each other in “shrunken log2 fold change” value: -0.0506 for the first, -0.122 for the second.

Compared with RRIRERPPRLPRPRPRPFPMPRP, RRIRVRPPRLPRPRPRPAEMPRP is higher in “shrunken log2 fold change” value: -0.423 for the first, 0.0714 for the second.

Compared with RRIRERPPRLPRPRPRPYYNPRP, RRIRPRPPRLPRPRPRPKWKPRP is higher in “shrunken log2 fold change” value: -0.675 for the first, -0.0038 for the second.

First: RRIRERPPRLPRPRPRPHGFPRP
Second: RRIRARPPRLPRPRPRPIENPRP
The “shrunken log2 fold change” value of the first is lower: -0.0632 for the first, 0.203 for the second.

RRIRHRPPRLPRPRPRPCSMPRP and RRIRMRPPRLPRPRPRPSDKPRP are within 0.2 log units of each other in “shrunken log2 fold change” value: -0.0569 for the first, 0.0839 for the second.

Going from RRIRKRPPRLPRPRPRPTHWPRP to RRIRGRPPRLPRPRPRPQKAPRP, the “shrunken log2 fold change” value falls from 0.796 to -0.027.

Going from RRIRLRPPRLPRPRPRPGKIPRP to RRIRGRPPRLPRPRPRPCPKPRP, the “shrunken log2 fold change” value rises from -0.125 to 0.193.

First: RRIRCRPPRLPRPRPRPIPVPRP
Second: RRIRLRPPRLPRPRPRPFQIPRP
The “shrunken log2 fold change” value of the first is lower: -0.376 for the first, -0.109 for the second.

Going from RRIRIRPPRLPRPRPRPCKGPRP to RRIRGRPPRLPRPRPRPSIRPRP, the “shrunken log2 fold change” value rises from 0.00355 to 0.417.

First: RRIRDRPPRLPRPRPRPGCWPRP
Second: RRIRGRPPRLPRPRPRPAPIPRP
The “shrunken log2 fold change” value of the first is higher: 1.03 for the first, 0.586 for the second.

Compared with RRIRVRPPRLPRPRPRPCDTPRP, RRIRYRPPRLPRPRPRPLIWPRP is lower in “shrunken log2 fold change” value: 0.0884 for the first, -0.256 for the second.

First: RRIRVRPPRLPRPRPRPAWPPRP
Second: RRIRHRPPRLPRPRPRPVEAPRP
The “shrunken log2 fold change” value of the first is higher: 0.537 for the first, 0.0753 for the second.

First: RRIRKRPPRLPRPRPRPPYYPRP
Second: RRIRCRPPRLPRPRPRPTKIPRP
The “shrunken log2 fold change” value of the first is lower: -0.291 for the first, 0.0473 for the second.

Compared with RRIRERPPRLPRPRPRPTSKPRP, RRIRARPPRLPRPRPRPKIDPRP is higher in “shrunken log2 fold change” value: -0.426 for the first, 0.115 for the second.

First: RRIRERPPRLPRPRPRPWWMPRP
Second: RRIRVRPPRLPRPRPRPQYSPRP
The “shrunken log2 fold change” value of the first is lower: -0.436 for the first, 0.0315 for the second.

RRIRMRPPRLPRPRPRPNTSPRP and RRIRNRPPRLPRPRPRPFRAPRP are within 0.2 log units of each other in “shrunken log2 fold change” value: -0.0142 for the first, -0.00309 for the second.

Compared with RRIRLRPPRLPRPRPRPPSEPRP, RRIRDRPPRLPRPRPRPMPLPRP is lower in “shrunken log2 fold change” value: 0.321 for the first, -0.0224 for the second.

RRIRIRPPRLPRPRPRPEPQPRP and RRIRKRPPRLPRPRPRPGFKPRP are within 0.2 log units of each other in “shrunken log2 fold change” value: -0.0904 for the first, -0.0198 for the second.

RRIRKRPPRLPRPRPRPKGDPRP and RRIRSRPPRLPRPRPRPGFQPRP are within 0.2 log units of each other in “shrunken log2 fold change” value: -0.0351 for the first, -0.114 for the second.

Compared with RRIRNRPPRLPRPRPRPHEHPRP, RRIRHRPPRLPRPRPRPKPMPRP is higher in “shrunken log2 fold change” value: -0.155 for the first, 0.223 for the second.

RRIRVRPPRLPRPRPRPIDRPRP and RRIRERPPRLPRPRPRPLDQPRP are within 0.2 log units of each other in “shrunken log2 fold change” value: -0.0529 for the first, 0.09 for the second.

Going from RRIRQRPPRLPRPRPRPATLPRP to RRIRRRPPRLPRPRPRPRYSPRP, the “shrunken log2 fold change” value falls from -0.0197 to -0.49.

First: RRIRNRPPRLPRPRPRPYKFPRP
Second: RRIRNRPPRLPRPRPRPRFHPRP
The “shrunken log2 fold change” value of the first is lower: -0.286 for the first, 0.0377 for the second.

Compared with RRIRCRPPRLPRPRPRPQEYPRP, RRIRIRPPRLPRPRPRPGLCPRP is higher in “shrunken log2 fold change” value: -0.399 for the first, 0.108 for the second.

Compared with RRIRVRPPRLPRPRPRPSHYPRP, RRIRRRPPRLPRPRPRPGGPPRP is higher in “shrunken log2 fold change” value: -0.68 for the first, 0.321 for the second.

For RRIRYRPPRLPRPRPRPYSKPRP, the “shrunken log2 fold change” value was -0.124.
